In patent US20260207704A1, “STAPLED PEPTIDES AND METHODS THEREOF” (priority 2022, published 2026):
*1 amine or outer side, *2 acyl side, *3 side chain or, on linkers, in order; H or OH if unused. Bridges are numbered along the chain shown (N, C = ends). Primed or numbered codes have the meaning given here. [ ]: non-standard residue; d: D form. PyrS2(6) = (S)-3-amino-1-((pent-4-en-1-yloxy)carbonyl)pyrrolidine-3-carboxylic acid, stapled with another olefin-containing amino acid residue through the olefin group, O=C(OCCCC=[*:3])N1CC[C@@](N[*:1])(C(=O)[*:2])C1; B5(4) = 2-amino-2-(pent-4-en-1-yl)hept-6-enoic acid, stapled through each of its two olefin groups with other olefin-containing amino acid residues, O=C(C(CCCC=[*:3])(CCCC=[*:4])N[*:1])[*:2]; PyrS2 = (S)-3-amino-1-((pent-4-en-1-yloxy)carbonyl)pyrrolidine-3-carboxylic acid, olefin staple residue, C=CCCCOC(=O)N1CC[C@@](N[*:1])(C(=O)[*:2])C1; PyrS2(3) = (S)-3-amino-1-((pent-4-en-1-yloxy)carbonyl)pyrrolidine-3-carboxylic acid, olefin residue, C=CCCCOC(=O)N1CC[C@@](N[*:1])(C(=O)[*:2])C1; PyrS2(5) = (S)-3-amino-1-((pent-4-en-1-yloxy)carbonyl)pyrrolidine-3-carboxylic acid, C=CCCCOC(=O)N1CC[C@@](N[*:1])(C(=O)[*:2])C1; B5(5) = 2-amino-2-(pent-4-en-1-yl)hept-6-enoic acid (two olefin arms), C=CCCCC(CCCC=C)(N[*:1])C(=O)[*:2]; B5(3) = 2-amino-2-(pent-4-en-1-yl)hept-6-enoic acid, two olefin arms, C=CCCCC(CCCC=C)(N[*:1])C(=O)[*:2]; 2F3MeF″ = aromatic residue, Cc1cccc(C[C@H](N[*:1])C(=O)[*:2])c1F; Phe(3-COOH) = N[C@@H](Cc1cccc(C(=O)O)c1)C(=O)O; Bta = N[C@@H](Cc1csc2ccccc12)C(=O)O; αAllylPro = C=CC[C@@]1(C(=O)O)CCCN1; tBuAla = CC(C)(C)C[C@H](N)C(=O)O; 3Thi = N[C@@H](Cc1ccsc1)C(=O)O; Thr(ol) = C[C@@H](O)[C@H](N)CO; TriAzLys(3) = not defined here; 2F3MeF(4) = Phe analogue; Orn = NCCC[C@H](N)C(=O)O; AsnR = not defined here; GlnR = not defined here; sAla = not defined here; B5 = not defined here; Aib = CC(C)(N)C(=O)O

Columns and labels:
beta-catenin (human) [1] = assay: cell-based or functional assay
beta-catenin (human) [2] = assay: fluorescence polarization

Sequence of beta-catenin (human) (B6V8E6 146-665 limits assumed): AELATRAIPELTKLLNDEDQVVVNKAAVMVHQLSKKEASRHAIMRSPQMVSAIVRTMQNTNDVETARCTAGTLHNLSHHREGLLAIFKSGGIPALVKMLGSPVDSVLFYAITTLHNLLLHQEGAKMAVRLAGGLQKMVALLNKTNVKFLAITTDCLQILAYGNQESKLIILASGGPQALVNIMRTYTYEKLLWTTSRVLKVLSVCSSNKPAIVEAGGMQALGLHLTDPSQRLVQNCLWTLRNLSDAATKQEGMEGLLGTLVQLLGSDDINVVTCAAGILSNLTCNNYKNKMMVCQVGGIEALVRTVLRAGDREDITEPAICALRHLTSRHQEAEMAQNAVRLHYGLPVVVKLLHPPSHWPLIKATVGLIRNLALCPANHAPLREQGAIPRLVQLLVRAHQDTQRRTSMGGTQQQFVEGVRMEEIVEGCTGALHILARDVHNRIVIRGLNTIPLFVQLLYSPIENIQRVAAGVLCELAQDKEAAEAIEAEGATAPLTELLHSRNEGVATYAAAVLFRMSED

Row | Binder | IC50 (beta-catenin (human) [2]) | NanoBRET Abs IC50 (beta-catenin (human) [1]) | NanoBRET Abs IC50 (bin >3.0 uM) (beta-catenin (human) [1]) | other results
1 | Ac-[αAllylPro]D[tBuAla][B5]D[Phe(3-COOH)][Aib]AFK[PyrS2][3Thi][Bta][GlnR]A-NH2 (staple 1-4, 4-11; lactam 10-14; not fully specified; printed as Ac-PL3-Asp-Npg-B5-Asp-3COOHF-Aib-Ala-Phe-Lys*3-PyrS2-3Thi-BztA-GlnR*3-Ala-NH2; reading uncertain) [I-66] | < 50 nM | – | – | AXIN2 expression IC50, COLO320DM cells (beta-catenin (human) [1]): 300 nM; AXIN2 expression IC50, DLD1 cells (beta-catenin (human) [1]): 1600 nM; SP5 expression IC50, DLD1 cells (beta-catenin (human) [1]): 1300 nM
2 | Ac-[αAllylPro]D[tBuAla][B5(4)]DD[TriAzLys(3)]AF[sAla][PyrS2(6)][3Thi][Bta]Q-NH2 (triazole 7-10; not fully specified (bridges); printed as Ac-PL3-Asp-Npg-B5-Asp-Asp-TriAzLys*3-Ala-Phe-sAla*3-PyrS2-3Thi-BztA-Gln-NH2; reading uncertain) [I-29] | < 50 nM | > 10000 nM | – | –
3 | Ac-[αAllylPro]D[tBuAla][B5(4)]D[Phe(3-COOH)][TriAzLys(3)]AF[sAla][PyrS2(6)][3Thi][Bta]Q-NH2 (triazole 7-10; not fully specified (bridges); printed as Ac-PL3-Asp-Npg-B5-Asp-3COOHF-TriAzLys*3-Ala-Phe-sAla*3-PyrS2-3Thi-BztA-Gln-NH2; reading uncertain) [I-30] | < 50 nM | > 10000 nM | – | –
4 | Ac-[αAllylPro]D[tBuAla][B5(4)]D[Phe(3-COOH)][TriAzLys(3)]AF[sAla][PyrS2(6)][2F3MeF(4)][Bta]Q-NH2 (triazole 7-10; not fully specified (bridges); printed as Ac-PL3-Asp-Npg-B5-Asp-3COOHF-TriAzLys*3-Ala-Phe-sAla*3-PyrS2-2F3MeF-BztA-Gln-NH2; reading uncertain) [I-31] | < 50 nM | > 10000 nM | – | –
5 | Ac-[αAllylPro]D[tBuAla][B5(4)]D[Phe(3-COOH)]AAFK[PyrS2(6)][3Thi][Bta][GlnR]-NH2 (bridge 10-14; not fully specified (bridges); printed as Ac-PL3-Asp-Npg-B5-Asp-3COOHF-Ala-Ala-Phe-Lys*3-PyrS2-3Thi-BztA-GlnR*3-NH2; reading uncertain) [I-32] | < 50 nM | < 1500 nM | – | –
6 | Ac-[αAllylPro]D[tBuAla][B5(4)]D[Phe(3-COOH)]AAF[GlnR][PyrS2(6)][3Thi][Bta]K-NH2 (bridge 10-14; not fully specified (bridges); printed as Ac-PL3-Asp-Npg-B5-Asp-3COOHF-Ala-Ala-Phe-GlnR*3-PyrS2-3Thi-BztA-Lys*3-NH2; reading uncertain) [I-33] | < 50 nM | – | < 10000 nM | –
7 | Ac-[αAllylPro]D[tBuAla][B5(5)]D[Phe(3-COOH)]AAFK[PyrS2(5)][3Thi][Bta][AsnR]-NH2 (bridge 10-14; not fully specified (bridges); printed as Ac-PL3-Asp-Npg-B5-Asp-3COOHF-Ala-Ala-Phe-Lys*3-PyrS2-3Thi-BztA-AsnR*3-NH2; reading uncertain) [I-34] | < 50 nM | – | < 10000 nM | –
8 | Ac-[αAllylPro]D[tBuAla][B5(5)]D[Phe(3-COOH)]AAF[Orn][PyrS2(5)][3Thi][Bta][GlnR]-NH2 (bridge 10-14; not fully specified (bridges); printed as Ac-PL3-Asp-Npg-B5-Asp-3COOHF-Ala-Ala-Phe-Orn*3-PyrS2-3Thi-BztA-GlnR*3-NH2; reading uncertain) [I-37] | < 50 nM | – | < 10000 nM | –
9 | Ac-[αAllylPro]D[tBuAla][B5(5)]D[Phe(3-COOH)]AAF[GlnR][PyrS2(5)][3Thi][Bta][Orn]-NH2 (bridge 10-14; not fully specified (bridges); printed as Ac-PL3-Asp-Npg-B5-Asp-3COOHF-Ala-Ala-Phe-GlnR*3-PyrS2-3Thi-BztA-Orn*3-NH2; reading uncertain) [I-38] | < 50 nM | – | < 10000 nM | –
10 | Ac-[αAllylPro]D[tBuAla][B5(5)]D[Phe(3-COOH)]AAF[Orn][PyrS2(5)][3Thi][Bta][AsnR]-NH2 (bridge 10-14; not fully specified (bridges); printed as Ac-PL3-Asp-Npg-B5-Asp-3COOHF-Ala-Ala-Phe-Orn*3-PyrS2-3Thi-BztA-AsnR*3-NH2; reading uncertain) [I-39] | < 50 nM | > 10000 nM | – | –
11 | Ac-[αAllylPro]D[tBuAla][B5(5)]D[Phe(3-COOH)]AAFK[PyrS2(5)][3Thi][Bta][GlnR]A-NH2 (bridge 10-14; reading uncertain; also: PL3/B5/PyrS2 staple links not placed, printed as Ac-PL3-Asp-Npg-B5-Asp-3COOHF-Ala-Ala-Phe-Lys*3-PyrS2-3Thi-BztA-GlnR*3-Ala-NH2) [I-42] | < 50 nM | – | – | NanoBRET Abs IC50 (bin >1.5 uM) (beta-catenin (human) [1]): < 3000 nM
12 | Ac-[αAllylPro]D[tBuAla][B5(5)]D[Phe(3-COOH)]AAF[GlnR][PyrS2(5)][3Thi][Bta]KA-NH2 (bridge 10-14; reading uncertain; also: PL3/B5/PyrS2 staple links not placed, printed as Ac-PL3-Asp-Npg-B5-Asp-3COOHF-Ala-Ala-Phe-GlnR*3-PyrS2-3Thi-BztA-Lys*3-Ala-NH2) [I-43] | < 50 nM | – | – | NanoBRET Abs IC50 (bin >1.5 uM) (beta-catenin (human) [1]): < 3000 nM
13 | Ac-[αAllylPro]D[tBuAla][B5(3)]D[Phe(3-COOH)]AAFK[PyrS2(3)][2F3MeF″][Bta][GlnR]-NH2 (bridge 10-14; not fully specified (bridges); printed as Ac-PL3-Asp-Npg-B5-Asp-3COOHF-Ala-Ala-Phe-Lys*3-PyrS2-2F3MeF-BztA-GlnR*3-NH2; reading uncertain) [I-55] | < 50 nM | – | – | NanoBRET Abs IC50 (bin >1.5 uM) (beta-catenin (human) [1]): < 3000 nM
14 | Ac-[αAllylPro]D[tBuAla][B5(3)]D[Phe(3-COOH)]AAFK[PyrS2(3)][2F3MeF″][Bta][AsnR]-NH2 (bridge 10-14; not fully specified (bridges); printed as Ac-PL3-Asp-Npg-B5-Asp-3COOHF-Ala-Ala-Phe-Lys*3-PyrS2-2F3MeF-BztA-AsnR*3-NH2; reading uncertain) [I-56] | < 50 nM | – | < 10000 nM | –
15 | Ac-[αAllylPro]D[tBuAla][B5(3)]D[Phe(3-COOH)]AAFK[PyrS2(3)][2F3MeF″][Bta][GlnR]A-NH2 (bridge 10-14; not fully specified (bridges); printed as Ac-PL3-Asp-Npg-B5-Asp-3COOHF-Ala-Ala-Phe-Lys*3-PyrS2-2F3MeF-BztA-GlnR*3-Ala-NH2; reading uncertain) [I-57] | < 50 nM | – | – | NanoBRET Abs IC50 (bin >1.5 uM) (beta-catenin (human) [1]): < 3000 nM
16 | Ac-[αAllylPro]D[tBuAla][B5(3)]D[Phe(3-COOH)]QAFK[PyrS2(3)][2F3MeF″][Bta][GlnR]A-NH2 (bridge 10-14; not fully specified (bridges); printed as Ac-PL3-Asp-Npg-B5-Asp-3COOHF-Gln-Ala-Phe-Lys*3-PyrS2-2F3MeF-BztA-GlnR*3-Ala-NH2; reading uncertain) [I-60] | < 50 nM | – | < 10000 nM | –
17 | Ac-[αAllylPro]D[tBuAla][B5(3)]D[Phe(3-COOH)]QAFK[PyrS2(3)][2F3MeF″][Bta][AsnR]A-NH2 (bridge 10-14; not fully specified (bridges); printed as Ac-PL3-Asp-Npg-B5-Asp-3COOHF-Gln-Ala-Phe-Lys*3-PyrS2-2F3MeF-BztA-AsnR*3-Ala-NH2; reading uncertain) [I-61] | < 50 nM | > 10000 nM | – | –
18 | Ac-[αAllylPro]D[tBuAla][B5(3)]D[Phe(3-COOH)]AAFK[PyrS2(3)][3Thi][Bta][GlnR][Thr(ol)] (bridge 10-14; not fully specified (bridges); printed as Ac-PL3-Asp-Npg-B5-Asp-3COOHF-Ala-Ala-Phe-Lys*3-PyrS2-3Thi-BztA-GlnR*3-Throl; reading uncertain) [I-62] | < 50 nM | – | < 10000 nM | –
19 | Ac-[αAllylPro]D[tBuAla][B5(3)]D[Phe(3-COOH)]AAFK[PyrS2(3)][3Thi][Bta][GlnR][Thr(ol)] (bridge 10-14; not fully specified (bridges); printed as Ac-PL3-Asp-Npg-B5-Asp-3COOHF-Ala-Ala-Phe-Lys*3-PyrS2-3Thi-BztA-GlnR*3-Throl; reading uncertain) [I-63] | < 50 nM | – | < 10000 nM | –
20 | Ac-[αAllylPro]D[tBuAla][B5(3)]D[Phe(3-COOH)]AAFK[PyrS2(3)][3Thi][Bta][GlnR]-Prool (bridge 10-14; not fully specified (bridges); printed as Ac-PL3-Asp-Npg-B5-Asp-3COOHF-Ala-Ala-Phe-Lys*3-PyrS2-3Thi-BztA-GlnR*3-Prool; reading uncertain) [I-64] | < 50 nM | – | – | NanoBRET Abs IC50 (bin >1.5 uM) (beta-catenin (human) [1]): < 3000 nM
